Measurements taken from the nanobody polyreactivity screen of Harvey et al. (2022).

test: yeast display, Sf9 membrane polyspecificity reagent, FACS + sequencing; frameworks hold sequencing errors
In short: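 Galactose-induced (36–48 hours) yeast carrying a synthetic nanobody display library were exposed to 10% biotinylated, detergent-solubilized Sf9 membrane reagent at 4 °C for 1 hour. FACS followed streptavidin microbead enrichment, using low and high (top ~1%) gates for expression (anti-HA) and reagent binding (streptavidin). Colony PCR, MiSeq 2 × 250 sequencing and CDR-length filtering followed. Labels for polyreactivity reflect the gate of origin.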

Sequence	polyreactivity (PSR sort gate)
QVQLVESGGGLVQAGGSLRLSCAASGNTLVKNAMGWYRQAPGKERELVAANSSSGGRTYYADSVKGRFTISRDNAKTTVYLQLNSLKPEDTAVYYCAARYPSGYYYWGQGTQVTVSS	high polyreactivity
QVQLVESGGCLVQEGGSLRLSCPASGSIFDDYAMGWYRQAPGKERELVAAISDSCGSTYYADSVKGRFTISRDNAKNTVYLQMNSLNQEDTAVYYCNADRDDDYDYWGEGTQVTVSS	low polyreactivity
QVQLVESGGGLVQAGGRLRLSCAASGFTFRYYAMGWYRQAPGKERELVAAISGSGVSTYYADSVKGRFTISRDNAKNTVYLQMNSLKPEDTAVYYCAAGYPGHYYKYDYWGQGTQVTVSS	high polyreactivity
QVQLQESGGLVQAGGLRLSCEASGSVSYQEGMGWYRQATGKERELVATISFGANTNYADSVKGRFTISRDNAKNTVYLQMNSLKTEDTAVFYCAADSLFDDYYGYWGQGTQVTVSS	low polyreactivity
QFQLVESGGGLVQAGGSLRLSCAASGSIFVLYAMGWYRQAPGKERELVAAITSAGSTYYADSVKGRFTISRDNAKNTVYLQMNSLKPEDTAVYYCAAGFYGYARHTWYNDWGQGTQVTVSS	high polyreactivity
QVQLVESGGGLVQAGGSLRLSCAASGSTITDYTMGWYRQAPGKERELVAVISQSGGSTYYADSVKGRFTISRDNAKNTVYLQMNSLKPEDTAVYYCAARTYWRGYRGQKYDYWGQGTQVTVSS	high polyreactivity
QVQLVESGGGLVQAGGSLRLSCAASGSIISYYAMGWYRQAPGKEWELVAAISWSGGSTYYADSVKGRFTISRDNAKNTVYLQRNSLTPEDTAVYYCAKYAYPRSRYTPYGSYDYWGQGTQVTVSS	high polyreactivity
QVQLVESGGGLVQAGGSLRLSCAASGSIFSRYAMGWYRQAPAKERELVAASSSRGGSTYYADSVKGRFTISRDNAKNTVYLQMNSLKTEDTAVYYCAAQAPDTPSLDEGDFWGQGTQVTVSS	high polyreactivity
QVQLVESGGGLVQEGGSLRLNCAASGRTFFRNTMGWYRQAPRKDSELFATISSSGGSTYYADSVKGLFTISRDTAKNTVYLQMNSLKPEDTAVYYCAAAPSKWYYGYGYWGQGTQVTVSS	high polyreactivity
QVQLVESGGGIDQAGGSLRLSCAASGSNFYTYAMGWYRQAPGKEREFVAAITRGGARTYYADSVKWRFTISRDNAKNTVYLQMNSLKPEDTAVYYCAKLGKATTQVGSDYWGQGTQVSVSS	low polyreactivity
QVQLVESGGGLVQAGGSLRLSCAASGFTFSFYTMGWYRQAPGKERELVAAISRRGGSTYYADSVKGRFTISRDNAKNTVYLQMNSLKPEDTAVYYCATDHIPSVGVDYWGQGTQVTVSS	high polyreactivity
QVQLVESGGGLVQAGGSLRLSCAASGSIFSAKTMGWYRQAPGKERELVAAISSSGGRTYYADSVKGRFTISRDHAKNTVYLQMNSLKPEDTAVYYSNARSRYHVTPYSGVTGYDYWGQGTQVTVSS	high polyreactivity
QVQLVESGGGLVQAGGSLRLSCAASGITFYLNAMGWYRQAPGKDRELVADITVSGGSTYYADSVKGRFTISRDNAKNTVYLQMNSLKPEDTAVYYCAADLTISYSQEYYYWGQGTQVTVSS	low polyreactivity
QVQLEESGGGLVQAGGSLRVSCAASGRTSEIYTLGGYRTAPGKERELVASINTNYADSGKGRFTISRDIAKNTVYLQLISLKPDDTAVYYCNADDTIEFNYWGQGTQVTVSW	low polyreactivity
QVQLIESGGGLVQAGGSLRLSCAASGSSLYYYALGWYRQAPGKEREWVAAISSSDGRTYYADSVKGRFTISRDNAKNTVYVQMNSLKPEDTAVYYCNAAVYAHRYIYGFDYWGQGTQVTVSS	high polyreactivity
QVQLVESGGGLVQAGGILRLSCAASGRILTTNAMGWYRQAPGKERELVAAITRSGGRTYYADSVKGRFTISRDNAKNTVYFQMNSLKPEDTAVYYCNAVTTRLSLYDYWGQGTQVTVSS	high polyreactivity

Sequence	polyreactivity (PSR sort gate)
QVQLVESGGGLVQAGGSLRLSCAGSGYILFAYAMGWSRQAPGKERELVATITTSGGITYYADSVKGRFTISRDNAKNTVYLQMNSLKPEDTEVYYWAAAEGGGLVTYDYWGQGSQVTVSS	low polyreactivity
QVQLVESGGGLVQAGGSLRLICAASGRIFHVNAMGWYRQAPGKERELVAAISTSGGRTYYADSVKGRFTISRDNAKNTVYLQMNSLKPEDTAVYYCAAVSRAPGLRYDYWGQGTQVTVSS	high polyreactivity
QVQLLESGGGLVQAGCSLRLSCAASGFTFKSNAMGWYRQAPGKESELVARINRSGGSTYYADSVKGRFTISRYNAKNTVYLQMNSLKPEDTAVYYCARGRYTLYESKYDYWGQGTQVTVSS	high polyreactivity
QVQLVESGGGLFQEGGSLRLSCAASGRIFSYYAMGWYRQAPGKERELVAGISSGGRTNYADSVKGRFTISRDNAKNTVYLQMNSLKPEDTAVYYCIARSFSLYWAYNYWGQGTQVTVSL	high polyreactivity
QVQLVESGVGLVQAGGSLRLSCAASGFIIRTYAMGWYIQAPGKERELVATITGDGSTNYADSVKGRFTISRDNAKNTVYLQMNSLKPEDTAVYYCSRDDRLAVDYWGQGTQVTVSS	low polyreactivity
QVQLVESGGGLVQAGGSLRLSCAASGFIFRWYAMGWYRQAPGKERELVATITGGGSTYYADSVKGRFTISRDNAKNTVYLQMNSLKPEDTAVYYCNARQIWKYSVRDDYWGQGTQVTVSS	high polyreactivity
QVQLVASGGGLVQAGGSHRLSCAASGRIFYYYAMGWYRQAPGKERELVASINSGGSTYYADSVKGPFTISRDNAKHTVYFQMNSLKPEDTACYYCAAGFQLVKGSLSGRAAYYYWGQGTQVTVSS	high polyreactivity
QVQLVESGGGLVQAGGSLRLSCAASGSTFAKYAMGWYRQAPGKERELVASIRLSGGSTYYADSVKGRFTISRDNAKNTVYLQMNSLNPEDTAVYYCNKQFATFYYGFDYYYWGQGTQVTVSS	low polyreactivity
QVQLVESGGGLVQAGGSLRLSCAASGSTFRLYAMGWYRPAPGKERELVAGISRTGTSTYYADSVKGRFTISRDNAKNTVYLQMNSLKPEDTAVYYCAAVRYWSDYDYWGQGTQVTVSS	high polyreactivity
QVQLVESGGGLVQAGGSLRLSCAASGFIFPGNVMGWYIQAPWKERELVAAISSGGGSTYYADSVKGRFTISRDNAKNSVYLQMNSLKPEDTAVYYCAKRTPRKWGQGTQVTVSS	high polyreactivity
QVQLVESGGALVQAGGSIRISCAASGSIFRDYAMGWSRQAPGKERELVAVISIAGRTNYADSVKGRFTISRDNAKNTVYLQMKRLKPEDTAVYYCAADSAWYGYDYWGQGTQVTVSS	low polyreactivity
QVQLVESGGGLVQAGGSLRLSCAASGRIFSFNAMGWYRQAPGKERELVASGGSTYADSVKGRFTISRDNAKNTVYLQMNSLKPEDTAVYYCAADPFYYFPSPFDYWGQGTQVTVSS	low polyreactivity
QVQLVESGGGLVKAGGSLRLSCAASGSTFRKYAMGWYRQAPGKEREFVAAISSSGGRTYYADSVKGRFTISRDNAKNTVYFLMNSLKPEDTAVYYCNSYFRYSNDYWGQGTQVTVSS	high polyreactivity
QVQLVESGGGLVQAGGSLRLSCAASGGTLWGYGMGWYRQAPGKEREFVAAITWSGGNTNYADSVKGRFTISRDNAMNTVYLLMNSLKPEDTAVYYCNARVYYKRKYDYWGQGTQVTVSS	high polyreactivity
QVQLVESGGGLVQAGGSLRISCAASGFTIAYYAMGWYRQAPGKERQKVASISSGDSTHYADSVKGRFTISRDNAKNTVYLQMNSLKPEDTAVYYCNADTRTFYYAAKTGFTFLYGYWGQGTQVTVSS	high polyreactivity
QVQLVESGGGLVQAGGSLRLSCAASGSTFGPYAMGWYRQAPGKERELVATITRNGGSTYYADSVKGRFTISRDNAKNTVYLQMNSLKPEDTAVYYCNAEGRWSSFTQRMDYWGQGTQVTVSS	low polyreactivity
